Biological target: Shp-2 (UniProt P35235)
Test: anti-FLAG co-IP, Shp-2 immunoblot
Conditions: reference: wild type, 1 mM pervanadate; sites Y447,Y470

Siglec-8 (from UniProt Q9NYZ4) Y447F+Y470F, 1 mM pervanadate
binding against the reference: lost

From publication PMC8837033
